Source: patent publication US20240110004A1 (Northwestern University, priority 2022, published 2024)
Where no end group is shown, it is not given here.

Experiments:
[1] = system: WT mice; experiment: P1 treatment of WT littermates in the efficacy study; assay type: in vivo, mouse
From the text: FIG. 31A-31F: For each of FIG. 31A-31F, data is shown reflecting the results of 3 separate studies (i.e., “Batch 1+2+3”) conducted under identical conditions; “veh” refers to the vehicle saline control. For each of FIG. 31A-31C at week 6, WT: n=15; WT+P1: n=15; R62 veh: n=22; R62+HV3-TAT: n=32; and R62+P1: n=16. For each of FIG. 31D-31F at week 6, WT: n=15; WT+P1: n=15; R62 veh: n=17; R62+HV3-TAT: n=30; and R62+P1: n=13. FIG. 31A depicts the average percent of body weight gain for mice subjected to each treatment. From top to bottom, the week 13 data points correspond to: WT+P1 (˜43%); WT (˜39%); R62+P1 (˜1%); R62+HV3-TAT (˜ 4%); and R62 (˜-9%). […]
In vivo Efficacy Methods—Behavioral Analysis: All experiments in animals were conducted in accordance with protocols approved by the Institutional Animal Care and Use Committee of Northwestern University and were performed based on the National Institutes of Health Guide for the Care and Use of Laboratory Animals. […] Accordingly, hindlimb clasping was assessed with the tail suspension test weekly from the ages 7 to 13 weeks in R6/2 mice and WT littermates. Mice were suspended by the tail for 60 sec and the latency for the hindlimbs or all four paws to clasp was recorded using the following score system: clasping over 10 sec, score 3; 5-10 sec, score 2; 0-5 sec, score 1; 0 sec, score 0. […]

[2] = system: R6/2 mice; experiment: Immunohistochemistry of DARPP-32 in striatum; assay type: in vivo, mouse; conditions: over saline control
From the text: FIG. 33: Quantification of immunohistochemistry of DARPP32 in striatum of WT and R6/2 mice after treatment with PLP or HV3-TAT (immunohistochemistry stain not shown). p-value for: WT veh as compared to R62 veh: 0.0010; WT+P1 as compared to R62 veh: 0.0019; R62 veh as compared to R62+HV3-TAT: 0.0496; R62 veh as compared to R62+P1: 0.0104; R62+HV3-TAT as compared to R62+P1: 0.9593.
In vivo Efficacy Methods—Immunohistochemistry: Mice were anaesthetized with isoflurane and transcardially perfused with PBS. After post-fixed with 4% paraformaldehyde, brains were sliced and frozen. Brain sections (20 μm, coronal) were used for immunohistochemical localization of DARPP-32 (1:14000, Abcam) using the IHC Select HRP/DAB kit (Millipore). Imaging of slices was conducted on an all-in-one fluorescence microscope (Keyence). The same image exposure times and threshold settings were used for sections from all treatment groups. Quantitation of DARPP-32 immunostaining was conducted using NIH image J software.

With “P1: PLP homopolymer having peptide side chains of SEQ ID: 1 (HVLVMSATRR), made by ROMP of norbornene peptide monomer M1 (also: side chains of polynorbornene homopolymer (PLP, ROMP of norbornene peptide monomer))” the survival rate ([1]; WT mice) was 100%, the “effects on motor ability, body weight, or neuropathology” value ([1]; mouse, in vivo) was “no significant effects” and the “DARPP-32 levels in striatum (immunohistochemistry)” value [2] was “significantly increased DARPP-32 levels”.
